Measured values: paper PMC6774866 (Molecular immunology, 2019)
Where no end group is shown, it is not given here.

Legend:
[1] = molecular target: UBC6e(1-197), randomly biotinylated with biotin-NHS (Mus musculus, UniProt Q9JJZ4, biotin on exposed Lys residues (random, biotin-N-hydroxysuccinimide ester)); assay: BLI
[2] = molecular target: UBC6e(1-197)-LPETGGG-biotin (Mus musculus, UniProt Q9JJZ4, biotin at the C-terminus (LPETGGG-biotin, by sortagging)); assay: BLI
[3] = molecular target: T1, Biotinylated 14-residue UBC6e peptide (Mus musculus (identical in human), UniProt Q9JJZ4, also: biotin, position not given here); assay: BLI
T1 chain: QADQEAKELARQIS-NH2

eGFP-UBC6e(168-186) = molecular target: T2, eGFP-UBC6e(168-186) (Mus musculus (printed stretch matches …, UniProt Q9JJZ4, chimera, also: joined to eGFP)); assay: pull-down
T2 chain: GSSQADQEAKELARQISFK-NH2

[4] = molecular target: T3, Arl3 sortagged with the UBC6e(168-186) tag (Mus musculus (UBC6e tag), UniProt Q9JJZ4, chimera, also: sortagged to Arl3); assay: pull-down
T3 chain: GSSQADQEAKELARQISFK-NH2

Sequence of UBC6e(1-197)-LPETGGG-biotin (Q9JJZ4 1-197): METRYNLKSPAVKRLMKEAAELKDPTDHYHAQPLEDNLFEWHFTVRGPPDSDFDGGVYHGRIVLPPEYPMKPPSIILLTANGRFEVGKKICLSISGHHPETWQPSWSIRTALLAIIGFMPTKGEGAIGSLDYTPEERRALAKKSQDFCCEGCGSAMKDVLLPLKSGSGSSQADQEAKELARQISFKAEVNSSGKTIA
Sequence of UBC6e(1-197), randomly biotinylated with biotin-NHS (Q9JJZ4 1-197): as above

B1: VHH05 (VHH)
VHH: QVQLQESGGGLVQPGGSLRLSCAASGFVFENSAMAWYRQAPGKERELIAVIGTTFIKLAESVKGRFTISRDNAKSTVYLQMNNLKPEDTAVYYCSKSGAYWGQGTQVTVSS
Kd [1]: 0.014 µM
Kd [2]: 0.016 µM
Kd [3]: ~0.00015 µM
binding result (eGFP-UBC6e(168-186)): binds
binding result [4]: binds
